This note sets out measurements from patent US8975370B2, “Inhibitor proteins of a protease and use thereof” (Universite de Lausanne, priority 2003, dated 2015).

Usually Km stands for the concentration of substrate that gives half-maximal velocity.

This series has as its system T1, Cc1cc(=O)oc2cc(NC(=O)[C@H](CCCNC(=N)N)NC(=O)[C@H](Cc3ccccc3)NC(=O)OCc3ccccc3)ccc12.
T1 construct: substrate Z-FR-AMC
Nature of the series: Km of PK for its fluorogenic substrate (used for ka correction, eq 2). The class given is biochemical, human. The note with it: other: PK, substrate Z-FR-AMC, kinetics in 50 mM Tris pH 7.5, 150 mM NaCl, 0.05% Triton X-100, 0.01% BSA, 25° C. The source says: hK2 and hK3 (PSA) were purified from human semen as previously described (Frenette G, Gervais Y, Tremblay R R, Dube J Y. 1998 “Contamination of purified prostate-specific antigen preparations by kallikrein hK2” J Urol 159, 1375-8), anti-hK2 and anti-PSA monoclonal antibodies were a gift from Professor R R Tremblay, Laval University, Canada. Human chymotrypsin (Chtr), urokinase plasminogen activator (uPA), human kallikrein hK1, human plasma kallikrein (PK), human neutrophil elastase (HNE) and commercial ACT (human plasma α1-antichymotrypsin) were purchased from Calbiochem. […]
The association rate constants for interactions of hK2, chymotrypsin, PK and HNE with different rACTs were determined under pseudo-first order conditions using the progress curve method (Morrison J F, Walsh C T. 1988 “The behavior and significance of slow-binding enzyme inhibitors” Adv. Enzymol. Relat. Areas Mol. Biol 61, 201-301). […] Each reaction was made in reaction buffer (50 mM Tris pH 7.5, 150 mM NaCl, 0.05% Triton X-100, 0.01% BSA) at 25° C. for 45 min and the rate of product formation was measured using a FLx800 fluorescence 96-well microplate reader (Biotek, USA). […]
For each inhibitor, a kobs was calculated, for four different concentrations of inhibitors, by non linear regression of the data using equation 1. […]

Sequence of human plasma kallikrein (PK) (Homo sapiens) (chain, as listed by the source): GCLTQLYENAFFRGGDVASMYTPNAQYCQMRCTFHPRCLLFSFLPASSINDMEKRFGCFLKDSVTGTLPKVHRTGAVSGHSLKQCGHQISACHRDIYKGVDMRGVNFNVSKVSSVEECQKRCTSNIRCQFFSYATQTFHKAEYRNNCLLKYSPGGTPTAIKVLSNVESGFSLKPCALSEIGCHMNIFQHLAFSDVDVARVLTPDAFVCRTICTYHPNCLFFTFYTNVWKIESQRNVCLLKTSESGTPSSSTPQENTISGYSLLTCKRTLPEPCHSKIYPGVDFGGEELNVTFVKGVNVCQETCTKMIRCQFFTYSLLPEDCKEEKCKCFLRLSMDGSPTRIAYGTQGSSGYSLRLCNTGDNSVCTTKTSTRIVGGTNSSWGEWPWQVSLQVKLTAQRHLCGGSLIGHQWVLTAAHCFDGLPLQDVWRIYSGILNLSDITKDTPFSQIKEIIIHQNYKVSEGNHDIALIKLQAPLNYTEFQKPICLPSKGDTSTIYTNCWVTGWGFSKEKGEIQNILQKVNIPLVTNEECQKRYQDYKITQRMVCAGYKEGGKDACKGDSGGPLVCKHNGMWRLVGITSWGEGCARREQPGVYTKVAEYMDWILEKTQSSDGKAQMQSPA

Regarding “human plasma kallikrein (PK) (Homo sapiens)”, the Km came to 170 µM.
